Source: ChEMBL document CHEMBL1126580, “Enantiospecific syntheses of alpha-(fluoromethyl)tryptophan analogues: interactions with tryptophan hydroxylase and aromatic L-amino acid decarboxylase” (J Med Chem, 1993)

Columns and labels:
[1] = substrate: N[C@@](CF)(Cc1c[nH]c2ccccc12)C(=O)O; experiment: Compound was evaluated as a substrate for P815 tryptophan hydroxylase […]
[2] = substrate: N[C@@](CF)(Cc1c[nH]c2ccccc12)C(=O)O; experiment: Km value was evaluated as a substrate for P815 tryptophan hydroxylase […]

B1: Tryptophan 5-hydroxylase 1 (Rattus norvegicus), P09810 (protein)
chain: MIEDNKENKDHSSERGRVTLIFSLKNEVGGLIKALKIFQENHVNLLHIESRKSKRRNSEFEIFVDCDINREQLNDIFPLLKSHTTVLSVDSPDQLPEKEDVMETVPWFPKKISDLDFCANRVLLYGSELDADHPGFKDNVYRRRRKYFAELAMNYKHGDPIPKIEFTEEEIKTWGTIFRELNKLYPTHACREYLRNLPLLSKYCGYREDNVPQLEDVSNFLKERTGFSIRPVAGYLSPRDFLSGLAFRVFHCTQYVRHSSDPLYTPEPDTCHELLGHVPLLAEPSFAQFSQEIGLASLGASEETVQKLATCYFFTVEFGLCKQDGQLRVFGAGLLSSISELRHALSGHAKVKPFDPKVACKQECLITSFQDVYFVSESFEDAKEKMREFAKTVKRPFGVKYNPYTQSIQVLRDSKSITSAMNELRHDLDVVNDALARVSRWPSV
Work on B1 yielded a Vmax (uM min-1 (mg of protein)-1) [1] of 17.7 and a Km [2] of 4.31 mM.
